Assay results: patent US20160333105A1 (UCB, published 2016)

How the values were obtained:
[1] = target: T1, human serum albumin (human, UniProt P02768 25-609); assay: SPR, Biacore 3000; construct captured by anti-CH1 antibody, HSA as analyte, 1:1 model
T1 construct: Bought reagent; also called HSA
Description: (§1) The (A26Fab-645Fv)₂-Fc samples were captured to the sensor chip surface using either a human Fe-specific goat F(ab′)₂ (Jackson ImmunoResearch, 109-006-098) or an in-house generated anti-human CH1 monoclonal antibody. Covalent immobilisation of the capture antibody was achieved by standard amine coupling chemistry.
(§2) Kinetic binding analysis by SPR was conducted to assess the interactions of human serum albumin (HSA) to the (A26Fab-645Fv)₂-Fc fusion, when captured using either anti-Fc or anti CH1 antibody.

[2] = target: T1, human serum albumin; assay: SPR, Biacore 3000; construct captured by anti-Fc F(ab')2, HSA as analyte, 1:1 model
Description: as §1, §2

[3] = target: T1, human serum albumin; assay: SPR (BIAcore), HSA as analyte

B1: (A26Fab-645Fv)2-Fc (bispecific antibody)
heavy: not shown
light: DIQMTQSPSSLSASVGDRVTITCRATQSIYNALAWYQQKPGKAPKLLIYNANTLHTGVPSRFSASGSGTDSTLTISSLQPEDFATYYCQQYYDYPLTFGGGTKVEIKRTVAAPSVFIFPPSDEQLKSGTASVVCLLNNFYPREAKVQWKVDNALQSGNSQESVTEQDSKDSTYSLSSTLTLSKADYEKHKVYACEVTHQGLSSPVTKSFNRGECSGGGGSGGGGSDIVMTQSPSSVSASVGDRVTITCQSSPSVWSNFLSWYQQKPGKAPKLLIYEASKLTSGVPSRFKGSGSGTDFTLTISSLQPEDFATYYCGGGYSSISDTTFGGGTKVEIKRMHEQKLISEEDL
notes: Tested as HEK293 supernatant; also called (FabFv)2Fc; (A26-645Fv)2-Fc
B1 gave a Kd [1] of 970 pM, a koff [1] of 6e-05 s⁻¹ and a kon [1] of 62000 M⁻¹ s⁻¹. The Kd [2] was 1880 pM, the koff [2] was 7.14e-05 s⁻¹ and the kon [2] was 38000 M⁻¹ s⁻¹. It also gave a Kd [3] of 970 pM, a Stoichiometry [3] of 0.55 and a koff [3] of 6e-05 s⁻¹. For the same binder, the kon [3] was 62100 M⁻¹ s⁻¹.
